Sequences and labels used below:
B1: His-tagged but otherwise wild type Tim50 [yeast] / Tim23 [yeast (endogenous in yeast mitochondria)] (parent complex)
chain 1: QKETKDDKPKSILTDDMLFKAGVDVDEKGQGKNEETSGEGGEDKNEPSSKSEKSRRKRQTSTDIKREKYANWFYIFSLSALTGTAIYMARDWEPQESEELKKDIDNGYTLSLMYKRFKARFNSMFTYFQEPPFPDLLPPPPPPPYQRPLTLVITLEDFLVHSEWSQKHGWRTAKRPGADYFLGYLSQYYEIVLFSSNYMMYSDKIAEKLDPIHAFVSYNLFKEHCVYKDGVHIKDLSKLNRDLSKVIIIDTDPNSYKLQPENAIPMEPWNGEADDKLVRLIPFLEYLATQQTKDVRPILNSFEDKKNLAEEFDHRVKKLKDKFYGDHKSGGNWAMTALGLGNSLGGSTKFPLDLIHEEGQKNYLMFMKMIEEEKEKIRIQQEQMGGQTFTLKDYVEGNLPSPEEQMKIQLEKQKEVDALFEEEKKKKKIAESK
chain 2: MSWLFGDKTPTDDANAAVGGQDTTKPKELSLKQSLGFEPNINNIISGPGGMHVDTARLHPLAGLDKGVEYLDLEEEQLSSLEGSQGLIPSRGWTDDLCYGTGAVYLLGLGIGGFSGMMQGLQNIPPNSPGKLQLNTVLNHITKRGPFLGNNAGILALSYNIINSTIDALRGKHDTAGSIGAGALTGALFKSSKGLKPMGYSSAMVAAACAVWCSVKKRLLEK

The assay covers variants of B1. Nature of the assay: pull-down (Ni-NTA agarose beads), immunoblot quantification; T, 10% of total material. B, 100% of bound material.; parent: 100; read off a plot. On the technique in general: In western blotting, separated proteins are transferred to a membrane and probed.
As for chain 1 QKETKDDKPKSILTDDMLFKAGVDVDEKGQGKNEETSGEGGEDKNEPSSKSEKSRRKRQTSTDIKREKYANWFYIFSLSALTGTAIYMARDWEPQESEELKKDIDNGYTLSLMYKRFKARFNSMFTYFQEPPFPDLLPPPPPPPYQRPLTLVITLEDFLVHSEWSQKHGWRTAKRPGADYFLGYLSQYYEIVLFSSNYMMYSDKIAEKLDPIHAFVSYNLFKEHCVYKDGVHIKVLSKLNRDLSKVIIIDTDPNSYKLQPENAIPMEPWNGEADDKLVRLIPFLEYLATQQTKDVSPILNSFEDKKNLAEEFDHRVKKLKDKFYGDHKSGGNWAMTALGLGNSLGGSTKFPLDLIHEEGQKNYLMFMKMIEEEKEKIRIQQEQMGGQTFTLKDYVEGNLPSPEEQMKIQLEKQKEVDALFEEEKKKKKIAESK [chain 1 D235V, chain 1 R296S], the percent of parent is approximately 12%. On to chain 1 QKETKDDKPKSILTDDMLFKAGVDVDEKGQGKNEETSGEGGEDKNEPSSKSEKSRRKRQTSTDIKREKYANWFYIFSLSALTGTAIYMARDWEPQESEELKKDIDNGYTLSLMYKRFKARFNSMFTYFQEPPFPDLLPPPPPPPYQRPLTLVITLEDFLVHSEWSQKHGWRTAKRPGADYFLGYLSQYYEIVLFSSNYMMYSDKIAEKLDPIHAFVSYNLFKEHCVYKDGVHIKDLSKLNRDLSKVIIIDTDPNSYKLQPENAIPMEPWNGEADDKLVRLIPFLEYLATQQTKDVSPILNSFEDKKNLAEEFDHRVKKLKDKFYGDHKSGGNWAMTALGLGNSLGGSTKFPLDLIHEEGQKNYLMFMKMIEEEKEKIRIQQEQMGGQTFTLKDYVEGNLPSPEEQMKIQLEKQKEVDALFEEEKKKKKIAESK [chain 1 R296S], for which the percent of parent is approximately 115%.

For chain 1 QKETKDDKPKSILTDDMLFKAGVDVDEKGQGKNEETSGEGGEDKNEPSSKSEKSRRKRQTSTDIKREKYANWFYIFSLSALTGTAIYMARDWEPQESEELKKDIDNGYTLSLMYKRFKARFNSMFTYFQEPPFPDLLPPPPPPPYQRPLTLVITLEDFLVHSEWSQKHGWRTAKRPGADYFLGYLSQYYEIVLFSSNYMMYSDKIAEKLDPIHAFVSYNLFKEHCVYKDGVHIKVLSKLNRDLSKVIIIDTDPNSYKLQPENAIPMEPWNGEADDKLVRLIPFLEYLATQQTKDVRPILNSFEDKKNLAEEFDHRVKKLKDKFYGDHKSGGNWAMTALGLGNSLGGSTKFPLDLIHEEGQKNYLMFMKMIEEEKEKIRIQQEQMGGQTFTLKDYVEGNLPSPEEQMKIQLEKQKEVDALFEEEKKKKKIAESK [chain 1 D235V], the percent of parent was approximately 37%.
